Measured values: the supplement of paper PMC10126150
± gives the standard deviation of the averaged measurements.

System: ATP
Experiment: switch fluorescence ratio, 500 uM ATP over buffer (Cy3 cluster intensity, sum of 5 cycles each) (fold (ratio)); higher = stronger signal-on switching upon ATP binding; sequences stand for … in TCGTCGGCAGCGTCAGATGTGTATAAGAGACAGTTTTTTTTTTTTTTTTTTTTTTTTT…TC
Details: aptamer strand: ATP DNA aptamer (quencher-CACCTGGGGGAGTATTGCGGAGGAAGG + anchor), 100 nM annealed; ATP concentration: 500 uM
Method in brief: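 After annealing to 100 nM quencher-labelled ATP aptamer, Cy3-labelled switching-strand clusters on a modified Illumina MiSeq flow-cell were imaged in selection buffer. A second image followed after 15 min with 500 uM ATP at 22 °C, and five such buffer/ATP cycles were done, each separated by NaOH stripping and re-annealing. The fluorescence ratio, averaged per switch-domain sequence, is summed target-cycle over summed buffer-cycle Cy3 intensity per cluster, with clusters outside 100-1000 RFU excluded.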
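Also: ATP exposure 15 min at 22 °C before imaging.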

| Sequence | switch fluorescence ratio |
| --- | --- |
| AGGTGTAAGG | 1.01 ± 0.051 |
| TGGGACATGC | 0.987 ± 0.0088 |
| AGGGTATCAG | 1.01 ± 0.039 |
| GGGGATGGCT | 0.992 ± 0.039 |
| TATAAAAGAA | 1.04 ± 0.053 |
| GCATTTGGGG | 0.9686 ± 0.0032 |
| AAGTTTACGC | 0.983 ± 0.025 |
| GTTGTCTTTG | 1.01 ± 0.031 |
| ATATGGGTTT | 1.01 ± 0.033 |
| CGGATATTGC | 1 ± 0.059 |
| ATATAAAGGA | 1.01 ± 0.024 |
| TGGGGAAAAT | 1.033 ± 0.0065 |
| TGCATGTATT | 1.012 ± 0.0039 |
| AGAGTCGCGG | 1 ± 0.015 |
| AGTAGGCAAG | 1 ± 0.035 |
| ACGCTTCTTG | 1 ± 0.028 |
| AGGGTCGGCT | 0.993 ± 0.02 |
| TGAGGCTGTT | 1 ± 0.031 |
| AGAGTTGGTC | 1 ± 0.068 |
| GAGAAGGGAC | 1.03 ± 0.046 |
| TACAAGTCGA | 1.016 ± 0.0042 |
| TGCAGCTTGT | 1.0186 ± 0.00048 |
| AACGGGATAT | 1.09 ± 0.0021 |

| Sequence | switch fluorescence ratio |
| --- | --- |
| TTTTTTCAGC | 1 ± 0.048 |
| TTGAAAGTGA | 1.13 ± 0.25 |
| ACATAATATT | 1.06 ± 0.036 |
| TTTGTTAGAA | 1.02 ± 0.012 |
| ATGAAATAAA | 0.9835 ± 0.0022 |
| AGAGCAGTGT | 1.01 ± 0.014 |
| GGTTTTCCGG | 1.01 ± 0.046 |
| ATTACTAGGA | 1 ± 0.057 |
| GGGTGGGGCA | 1.01 ± 0.045 |
| ATAGGTAGGT | 0.996 ± 0.004 |
| TTTGTTCTGG | 1.49 ± 0.73 |
| GATCGGATTA | 0.999 ± 0.024 |
| GCCGTTTGTG | 1.008 ± 0.0024 |
| GGCGCGGAGG | 0.992 ± 0.019 |
| TAGGATCGGA | 0.96 ± 0.032 |
| CTGTTGGGCC | 0.9949 ± 0.0047 |
| TATAGTCTA | 1.01 ± 0.031 |
| CTCGGAATGG | 1.08 ± 0.043 |
| AATGGGTGCA | 1.03 ± 0.054 |
| GCGTTTGCCC | 1.06 ± 0.072 |
| TAGGGTCTGT | 0.999 ± 0.022 |
| GCTGTAGGGC | 1.015 ± 0.0034 |
| CGTTACTCCG | 1.5 ± 0.16 |

| Sequence | switch fluorescence ratio |
| --- | --- |
| TCCAGCTGTG | 0.9916 ± 0.0022 |
| CGGTGTATTT | 0.9547 ± 0.0037 |
| GATGAGGAAG | 1.01 ± 0.06 |
| GTAACGGCCG | 1.16 ± 0.18 |
| CCTGTTCGGC | 1.02 ± 0.038 |
| TGGTCGGCAA | 1.045 ± 0.0081 |
| GTGGTGGCAG | 0.979 ± 0.015 |
| TAAACTGACG | 1.03 ± 0.051 |
| GTTGGTAGGT | 0.997 ± 0.019 |
| TGGTTCGCTA | 1.02 ± 0.013 |
| GGGGGGGATC | 1.02 ± 0.045 |
| AGGCGGGGGG | 1.02 ± 0.041 |
| ATTTTGTGGA | 0.987 ± 0.015 |
| AATGGATTTC | 1 ± 0.029 |
| GGAACGAAAG | 0.995 ± 0.043 |
| GGCTGATGCA | 0.938 ± 0.034 |
| CGATGTGCTT | 1.01 ± 0.024 |
| TTTTAGATGA | 0.966 ± 0.027 |
| AGGAGGTGGG | 0.981 ± 0.017 |
| GTAGTGAGGA | 1.02 ± 0.029 |
| CGGGGGGTGC | 1.01 ± 0.082 |
| GGGGTATCCA | 1.03 ± 0.03 |
| TTATCCTTTA | 1.02 ± 0.012 |

| Sequence | switch fluorescence ratio |
| --- | --- |
| ATTTAGGGAT | 1.02 ± 0.051 |
| TCGTTTTTGG | 1 ± 0.041 |
| AAAGTCTAGC | 1.01 ± 0.019 |
| AATCGGCGTC | 1.08 ± 0.15 |
| ACAGATGAGC | 1.01 ± 0.056 |
| TATCTATGAG | 1.01 ± 0.046 |
| TTCGGGGCGG | 0.934 ± 0.071 |
| AATATGATTC | 0.992 ± 0.025 |
| CTTCTAGTCC | 1.03 ± 0.028 |
| ATGACCGATT | 1.02 ± 0.049 |
| GTTCTGCAAT | 3.97 ± 0.11 |
| TGTAAGGGAC | 1.07 ± 0.034 |
| GGGTGGGCCA | 0.969 ± 0.035 |
| AAGAGGGGT | 0.9904 ± 0.0048 |
| AACGGTTTGG | 1.01 ± 0.021 |
| ATAGGGGACG | 1.01 ± 0.049 |
| TTCACGGTTG | 1.04 ± 0.061 |
| TTTTATAGGG | 0.948 ± 0.027 |
| AGGTTCGATC | 1.02 ± 0.043 |
| ACTTGCCGTA | 0.992 ± 0.071 |
| CCAGTGGCGA | 1.16 ± 0.039 |
| AGGGGTCCTT | 0.997 ± 0.026 |
| GTGGCTGGGA | 0.974 ± 0.026 |

| Sequence | switch fluorescence ratio |
| --- | --- |
| TTGGACGGGA | 1.29 ± 0.47 |
| CACGCAGGGT | 1.11 ± 0.12 |
| GTTATGAGTT | 0.975 ± 0.029 |
| CATAGTAGAA | 0.978 ± 0.034 |
| ATTTTCAACT | 1.03 ± 0.018 |
| CACGGATAGC | 1.07 ± 0.027 |
| AGTTTGGCGT | 1.01 ± 0.041 |
| AATATTACAT | 1.03 ± 0.034 |
| AATAGGGACC | 1.07 ± 0.089 |
| TTAGGTGGCG | 1.04 ± 0.018 |
| TTAGACCGGA | 1.02 ± 0.056 |
| ACAGCTGCTT | 0.981 ± 0.028 |
| GTTGTGGGAA | 0.98266 ± 0.00039 |
| GGGTTGTATG | 0.997 ± 0.038 |
| AACTTTGTTG | 1 ± 0.011 |
| GACTATGAGG | 1.02 ± 0.095 |
| AGGCAACGAA | 1.04 ± 0.039 |
| GGTAGGAACC | 1.01 ± 0.021 |
| TAGTAATGTG | 0.993 ± 0.022 |
| GTGTATAGGC | 1.09 ± 0.038 |
| GGTTGGATCG | 0.9987 ± 0.0047 |
| GTTGGCTTTG | 0.997 ± 0.048 |
| ATCGGCCATG | 0.988 ± 0.011 |

| Sequence | switch fluorescence ratio |
| --- | --- |
| AGAGTGACGT | 0.9848 ± 0.0018 |
| GCAATCTGGT | 1.11 ± 0.026 |
| AAGGAAAGGC | 0.961 ± 0.037 |
| TTAGGGAGTG | 1 ± 0.027 |
| TACGATGTGT | 1.03 ± 0.039 |
| CGGGGGGGG | 1 ± 0.059 |
| CTGGGTTGCG | 0.958 ± 0.032 |
| GATGACGAAT | 1.023 ± 0.0047 |
| TGTGGGGTGT | 1.039 ± 0.0096 |
| ACGTTCCGCT | 1.099 ± 0.003 |
| TCGGACTCGG | 0.963 ± 0.017 |
| TTTTTTTACA | 0.998 ± 0.01 |
| AAACCTATGG | 0.986 ± 0.055 |
| GCTGAGGGGG | 0.991 ± 0.041 |
| GAGGGGATTG | 0.986 ± 0.047 |
| AACCAATCGA | 1.04 ± 0.05 |
| CCATTAAGTC | 1.02 ± 0.045 |
| GTTTTTAGGG | 1.02 ± 0.021 |
| GGATGGTATG | 1.01 ± 0.015 |
| AGATATCTA | 0.985 ± 0.023 |
| TAGGAGGCGC | 0.937 ± 0.064 |
| TTAAACTTTT | 1.04 ± 0.031 |
| GGGCGGCTGC | 0.955 ± 0.03 |

| Sequence | switch fluorescence ratio |
| --- | --- |
| GTGTAAGAGA | 1.006 ± 0.0081 |
| GGGTTCTCTC | 0.98 ± 0.011 |
| ATCGGGTTTG | 0.977 ± 0.03 |
| TCCGAAAAAG | 1.33 ± 0.44 |
| GCTGTACTCA | 1.43 ± 0.13 |
| TTAATGGAGG | 1.04 ± 0.017 |
| TATGCAGCG | 1.001 ± 0.0024 |
| ATTTTGGGAC | 1.03 ± 0.047 |
| GGTTATTATG | 0.978 ± 0.039 |
| TTTTGGCTGT | 1.09 ± 0.25 |
| ACCGGATCGT | 0.9828 ± 0.0035 |
| TCAGAGGGCT | 0.991 ± 0.018 |
| ATTTACTATA | 1.07 ± 0.0053 |
| TATGAGCAGC | 1.01 ± 0.066 |
| GACAGGGATG | 1.02 ± 0.039 |
| TTTTTCAAAA | 1.029 ± 0.0063 |
| GTTACTAATG | 0.9996 ± 0.0029 |
| ATAGTACTCG | 1.06 ± 0.057 |
| TAACAGATTT | 0.958 ± 0.0034 |
